To fix the notation:
T1: EsCas13d, nuclease-dead (Eubacterium siraeum, UniProt B0MS50, R295A;H300A;R849A;H854A)
T1 sequence: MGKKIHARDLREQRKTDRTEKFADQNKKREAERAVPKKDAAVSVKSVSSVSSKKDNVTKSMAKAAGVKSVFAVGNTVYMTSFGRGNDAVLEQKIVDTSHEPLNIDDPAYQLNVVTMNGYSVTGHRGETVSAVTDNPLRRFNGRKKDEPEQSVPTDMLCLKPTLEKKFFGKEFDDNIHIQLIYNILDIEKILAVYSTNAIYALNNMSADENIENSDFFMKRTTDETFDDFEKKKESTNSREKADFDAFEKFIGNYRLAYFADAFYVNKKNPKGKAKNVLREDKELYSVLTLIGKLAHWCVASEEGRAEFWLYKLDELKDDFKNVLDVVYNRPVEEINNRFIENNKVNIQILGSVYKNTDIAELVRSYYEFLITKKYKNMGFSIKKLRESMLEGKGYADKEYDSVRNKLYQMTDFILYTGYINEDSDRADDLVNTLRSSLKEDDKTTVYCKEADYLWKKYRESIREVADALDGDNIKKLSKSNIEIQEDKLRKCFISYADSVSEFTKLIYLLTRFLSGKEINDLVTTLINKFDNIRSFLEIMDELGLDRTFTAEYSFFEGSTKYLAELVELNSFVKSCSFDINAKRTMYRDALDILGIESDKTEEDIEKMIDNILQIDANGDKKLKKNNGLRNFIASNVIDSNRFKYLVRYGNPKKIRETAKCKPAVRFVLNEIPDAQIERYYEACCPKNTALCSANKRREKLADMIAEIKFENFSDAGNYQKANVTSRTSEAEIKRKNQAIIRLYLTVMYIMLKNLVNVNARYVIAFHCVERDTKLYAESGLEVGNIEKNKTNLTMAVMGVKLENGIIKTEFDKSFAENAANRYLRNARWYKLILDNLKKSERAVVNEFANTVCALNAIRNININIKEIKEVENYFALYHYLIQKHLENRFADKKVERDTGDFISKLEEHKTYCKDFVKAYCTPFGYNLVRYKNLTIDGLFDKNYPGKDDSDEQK

B1: target 2 MT 5'PFS AGU 3'PFS AUC (mixed)
RNA 1: CACCCGUGCAAAAUUGCAGGGGUCUAAAACCUUCUCCAAAUUGUUUCAUCCU
RNA 2: GGGAAUGGAUCCACAUCUACGAAUUCAGUAGGAUGAAACAAUUUGGAGAAGAUCAGAUCGGAAGAGCACACGU
B2: target 2 MT 5'PFS AAG 3'PFS CAC (mixed)
RNA 1: CACCCGUGCAAAAUUGCAGGGGUCUAAAACCUUCUCCAAAUUGUUUCAUCCU
RNA 2: GGGAAUGGAUCCACAUCUACGAAUUCAAGAGGAUGAAACAAUUUGGAGAAGCACAGAUCGGAAGAGCACACGU
B3: target 2 MT 5'PFS CUG 3'PFS CCA (mixed)
RNA 1: CACCCGUGCAAAAUUGCAGGGGUCUAAAACCUUCUCCAAAUUGUUUCAUCCU
RNA 2: GGGAAUGGAUCCACAUCUACGAAUUCCUGAGGAUGAAACAAUUUGGAGAAGCCAAGAUCGGAAGAGCACACGU
B4: target 2 MT 5'PFS GUA 3'PFS UUA (mixed)
RNA 1: CACCCGUGCAAAAUUGCAGGGGUCUAAAACCUUCUCCAAAUUGUUUCAUCCU
RNA 2: GGGAAUGGAUCCACAUCUACGAAUUCGUAAGGAUGAAACAAUUUGGAGAAGUUAAGAUCGGAAGAGCACACGU
B5: target 2 MT 5'PFS CUG 3'PFS CCU (mixed)
RNA 1: CACCCGUGCAAAAUUGCAGGGGUCUAAAACCUUCUCCAAAUUGUUUCAUCCU
RNA 2: GGGAAUGGAUCCACAUCUACGAAUUCCUGAGGAUGAAACAAUUUGGAGAAGCCUAGAUCGGAAGAGCACACGU
B6: target 2 MT 5'PFS AAG 3'PFS CAG (mixed)
RNA 1: CACCCGUGCAAAAUUGCAGGGGUCUAAAACCUUCUCCAAAUUGUUUCAUCCU
RNA 2: GGGAAUGGAUCCACAUCUACGAAUUCAAGAGGAUGAAACAAUUUGGAGAAGCAGAGAUCGGAAGAGCACACGU
B7: target 2 MT 5'PFS GAU 3'PFS CGC (mixed)
RNA 1: CACCCGUGCAAAAUUGCAGGGGUCUAAAACCUUCUCCAAAUUGUUUCAUCCU
RNA 2: GGGAAUGGAUCCACAUCUACGAAUUCGAUAGGAUGAAACAAUUUGGAGAAGCGCAGAUCGGAAGAGCACACGU
B8: target 2 MT 5'PFS AUG 3'PFS ACG (mixed)
RNA 1: CACCCGUGCAAAAUUGCAGGGGUCUAAAACCUUCUCCAAAUUGUUUCAUCCU
RNA 2: GGGAAUGGAUCCACAUCUACGAAUUCAUGAGGAUGAAACAAUUUGGAGAAGACGAGAUCGGAAGAGCACACGU
B9: target 2 MT 5'PFS GAU 3'PFS CGA (mixed)
RNA 1: CACCCGUGCAAAAUUGCAGGGGUCUAAAACCUUCUCCAAAUUGUUUCAUCCU
RNA 2: GGGAAUGGAUCCACAUCUACGAAUUCGAUAGGAUGAAACAAUUUGGAGAAGCGAAGAUCGGAAGAGCACACGU
B10: target 2 MT 5'PFS UUC 3'PFS AUA (mixed)
RNA 1: CACCCGUGCAAAAUUGCAGGGGUCUAAAACCUUCUCCAAAUUGUUUCAUCCU
RNA 2: GGGAAUGGAUCCACAUCUACGAAUUCUUCAGGAUGAAACAAUUUGGAGAAGAUAAGAUCGGAAGAGCACACGU
B11: target 2 MT 5'PFS CUG 3'PFS CCG (mixed)
RNA 1: CACCCGUGCAAAAUUGCAGGGGUCUAAAACCUUCUCCAAAUUGUUUCAUCCU
RNA 2: GGGAAUGGAUCCACAUCUACGAAUUCCUGAGGAUGAAACAAUUUGGAGAAGCCGAGAUCGGAAGAGCACACGU
B12: target 1 del4,del7 (mixed)
RNA 1: CACCCGUGCAAAAAUGCAGGGGUCUAAAACUGAGCGGAUAACCUCUCUAUGG
RNA 2: GGGAAUGGAUCCACAUCUACGAAUUCGUACCAUAGAGAGGUUAUCGUCACCGAGAUCGGAAGAGCACACGU
B13: target 1 insU 3' of 21,insC 3' of 19 (mixed)
RNA 1: CACCCGUGCAAAAAUGCAGGGGUCUAAAACUGAGCGGAUAACCUCUCUAUGG
RNA 2: GGGAAUGGAUCCACAUCUACGAAUUCGUACCUAUCAGAGAGGUUAUCCGCUCACCGAGAUCGGAAGAGCACACGU

The target of the series is T1, EsCas13d, nuclease-dead. As to the kind of experiment: crRNA (strand 1, pre-loaded); Mg2+; 40 mM Tris-HCl pH 7.5, 150 mM NaCl, 6 mM MgCl2, 1 mM DTT, 0.1% Tween-20, 0.2 mg/ml BSA; 25 C; 10 min per concentration, then washed. The conditions noted are these: tags: His6-TwinStrep-SUMO cleaved; N-terminal SNAP kept (SNAP-Surface 488); label: 3' end held by stalled T7 RNA polymerase.
As a reminder, the Kd is a measure of binding affinity in units of concentration. Low values mean tighter binding, high ones weaker binding. As to B1, the dissociation constant Kd was determined as 16.7 ± 3.2 nM.
With B2, binding was put at a Kd of 2.9 ± 1 nM.
B3: the Kd was 14.9 ± 3.1 nM.
B4 gave a Kd of 22 ± 4 nM.
With B5 the figure was 57 ± 22 nM.
As for B6, the Kd stood at 4.2 ± 0.7 nM.
In turn, B7 gave a Kd of 12.7 ± 2 nM.
With B8 the figure was 12.6 ± 2.1 nM.
B9 returned a Kd of 10.9 ± 1.4 nM.
B10 gave a dissociation constant Kd of 16 ± 5 nM.
With B11 the figure was 4.06 ± 0.2 nM.
Consider B12, for which the Kd worked out at 5.34 ± 0.24 nM.
For B13, the Kd was about 100 nM.

For the origin of these results see publication PMC10786891, “Massively parallel profiling of RNA-targeting CRISPR-Cas13d”.
